This is an account of results in patent publication US5753483A, “Purified homogeneous UDP-GlcNAc (GalNAc) pyrophosphorylase” (priority 1995, dated 1998).

Data set [1] has as its system CC(=O)N[C@H]1[C@@H](OP(=O)(O)OP(=O)(O)OC[C@H]2O[C@@H](n3ccc(=O)[nH]c3=O)[C@H](O)[C@@H]2O)O[C@H](CO)[C@H](O)[C@@H]1O. The data set can be described thus: purified protein, by the assay type. The conditions noted are these: other: reverse direction, PP = 1 mM; 37.0 °C.
Data set [2] relates to CC(=O)NC1C(OP(=O)(O)OP(=O)(O)OCC2OC(n3ccc(=O)[nH]c3=O)C(O)C2O)OC(CO)C(O)C1O. The experiment in a line: purified protein, by the assay type. Particulars: other: reverse direction, PP = 1 mM; 37.0 °C.

A word on the Km: it is the concentration of substrate that gives half-maximal velocity.

Pyrophosphorylase (Sus scrofa), sequence (chain, as listed by the source): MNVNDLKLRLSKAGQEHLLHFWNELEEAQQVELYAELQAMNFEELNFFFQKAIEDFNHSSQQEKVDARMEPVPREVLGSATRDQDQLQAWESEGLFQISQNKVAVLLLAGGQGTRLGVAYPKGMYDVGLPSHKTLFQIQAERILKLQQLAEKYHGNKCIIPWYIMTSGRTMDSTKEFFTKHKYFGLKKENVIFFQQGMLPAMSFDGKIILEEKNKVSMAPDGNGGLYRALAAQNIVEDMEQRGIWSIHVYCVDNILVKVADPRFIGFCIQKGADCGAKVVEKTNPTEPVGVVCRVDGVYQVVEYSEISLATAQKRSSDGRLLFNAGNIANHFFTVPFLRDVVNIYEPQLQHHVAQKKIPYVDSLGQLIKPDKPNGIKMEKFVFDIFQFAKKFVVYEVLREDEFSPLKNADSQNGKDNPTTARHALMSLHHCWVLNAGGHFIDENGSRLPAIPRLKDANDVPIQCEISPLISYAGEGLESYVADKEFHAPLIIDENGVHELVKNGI

Take Pyrophosphorylase (Sus scrofa): the Km in data set [1] was determined as 200 µM; in data set [2], 45 µM.
